Tests used:
EPHB2 = EPHB2 (UniProt P29323); assay: phosphorylation enrichment, bacterial display (enrichment ratio); higher = better substrate or ligand; peptides without Tyr show the background
FGFR3 = FGFR3 (UniProt P22607); assay: as above
AncSZ = assay: as above
EPHB1 = EPHB1 (UniProt P54762); assay: as above
FGFR1 = FGFR1 (UniProt P11362); assay: as above
Fes = Fes (UniProt P07332); assay: as above
MERTK = MERTK (UniProt Q12866); assay: as above
Hck = Hck (UniProt P08631); assay: as above
Fer (mouse) = assay: as above
c-Src = assay: as above
c-Abl (mouse) = assay: as above
Jak2 = Jak2 (UniProt O60674); assay: as above
Jak2, sequence (O60674 whole entry, looked up): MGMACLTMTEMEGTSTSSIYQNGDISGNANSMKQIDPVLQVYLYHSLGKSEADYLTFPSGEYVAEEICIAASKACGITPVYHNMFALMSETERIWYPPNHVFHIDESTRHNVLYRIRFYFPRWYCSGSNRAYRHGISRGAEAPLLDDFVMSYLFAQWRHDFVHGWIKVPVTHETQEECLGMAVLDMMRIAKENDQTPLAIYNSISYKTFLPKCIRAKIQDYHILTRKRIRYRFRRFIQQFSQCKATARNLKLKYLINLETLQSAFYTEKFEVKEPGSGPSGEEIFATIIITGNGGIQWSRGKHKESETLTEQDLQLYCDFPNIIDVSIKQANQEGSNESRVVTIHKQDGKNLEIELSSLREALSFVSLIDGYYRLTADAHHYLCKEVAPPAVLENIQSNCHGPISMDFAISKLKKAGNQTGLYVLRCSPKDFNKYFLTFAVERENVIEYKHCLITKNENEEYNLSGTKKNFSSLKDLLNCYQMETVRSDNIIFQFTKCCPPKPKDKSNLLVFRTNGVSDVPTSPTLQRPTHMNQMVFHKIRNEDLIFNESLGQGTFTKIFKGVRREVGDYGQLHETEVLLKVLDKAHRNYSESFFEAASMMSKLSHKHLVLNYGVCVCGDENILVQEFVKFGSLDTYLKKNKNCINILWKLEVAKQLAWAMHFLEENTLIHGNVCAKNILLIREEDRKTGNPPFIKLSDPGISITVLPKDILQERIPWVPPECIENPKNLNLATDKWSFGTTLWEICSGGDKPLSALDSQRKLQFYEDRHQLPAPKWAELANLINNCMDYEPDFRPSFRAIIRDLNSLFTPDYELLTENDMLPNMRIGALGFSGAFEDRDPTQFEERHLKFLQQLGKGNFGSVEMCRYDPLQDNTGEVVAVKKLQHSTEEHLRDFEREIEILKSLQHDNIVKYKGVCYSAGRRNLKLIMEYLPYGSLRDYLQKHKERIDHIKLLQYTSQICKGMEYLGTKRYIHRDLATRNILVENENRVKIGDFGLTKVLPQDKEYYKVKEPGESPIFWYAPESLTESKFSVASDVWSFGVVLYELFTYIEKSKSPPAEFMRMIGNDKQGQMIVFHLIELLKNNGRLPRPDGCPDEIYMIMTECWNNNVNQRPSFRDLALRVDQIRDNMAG

Fyn = Fyn (UniProt P06241); assay: as above
Fyn, sequence (P06241 whole entry, looked up): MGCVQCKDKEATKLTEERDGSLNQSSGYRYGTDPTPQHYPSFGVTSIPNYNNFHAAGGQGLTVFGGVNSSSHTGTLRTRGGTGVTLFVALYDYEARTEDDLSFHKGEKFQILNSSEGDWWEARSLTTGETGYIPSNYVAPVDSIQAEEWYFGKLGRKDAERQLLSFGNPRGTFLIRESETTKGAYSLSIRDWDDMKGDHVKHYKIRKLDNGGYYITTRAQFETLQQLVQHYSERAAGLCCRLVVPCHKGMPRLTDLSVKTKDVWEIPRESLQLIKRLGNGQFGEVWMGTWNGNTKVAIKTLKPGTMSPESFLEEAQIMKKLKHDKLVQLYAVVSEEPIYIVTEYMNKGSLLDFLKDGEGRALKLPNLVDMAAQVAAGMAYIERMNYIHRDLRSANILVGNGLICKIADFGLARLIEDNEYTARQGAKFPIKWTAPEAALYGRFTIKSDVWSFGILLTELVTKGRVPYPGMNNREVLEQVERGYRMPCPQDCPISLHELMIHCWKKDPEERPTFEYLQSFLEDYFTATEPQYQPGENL

Grb2 SH2 = Grb2 SH2 (UniProt P62993); assay: SH2 binding enrichment of the phosphorylated peptide, bacterial display (enrichment ratio); higher = better substrate or ligand; peptides without Tyr show the background
c-Src SH2 = assay: as above
SHP2-C SH2 = assay: as above
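For SH2 binding enrichment of the phosphorylated peptide, bacterial display in this document: peptide library displayed on the E. coli surface as eCPX fusions, selected cells deep-sequenced, score is each peptide's frequency after selection divided by its frequency in the input.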
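For phosphorylation enrichment, bacterial display in this document: 11-residue human phosphosite peptides and single-mutation variants displayed on the E. coli surface, counted by deep sequencing, each peptide's frequency after selection divided by its frequency in the unselected input library; frequency after pTyr selection over input frequency; kinase dosed for 20-30% of maximal phosphorylation in three min.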

Fes, sequence (P07332 whole entry, looked up): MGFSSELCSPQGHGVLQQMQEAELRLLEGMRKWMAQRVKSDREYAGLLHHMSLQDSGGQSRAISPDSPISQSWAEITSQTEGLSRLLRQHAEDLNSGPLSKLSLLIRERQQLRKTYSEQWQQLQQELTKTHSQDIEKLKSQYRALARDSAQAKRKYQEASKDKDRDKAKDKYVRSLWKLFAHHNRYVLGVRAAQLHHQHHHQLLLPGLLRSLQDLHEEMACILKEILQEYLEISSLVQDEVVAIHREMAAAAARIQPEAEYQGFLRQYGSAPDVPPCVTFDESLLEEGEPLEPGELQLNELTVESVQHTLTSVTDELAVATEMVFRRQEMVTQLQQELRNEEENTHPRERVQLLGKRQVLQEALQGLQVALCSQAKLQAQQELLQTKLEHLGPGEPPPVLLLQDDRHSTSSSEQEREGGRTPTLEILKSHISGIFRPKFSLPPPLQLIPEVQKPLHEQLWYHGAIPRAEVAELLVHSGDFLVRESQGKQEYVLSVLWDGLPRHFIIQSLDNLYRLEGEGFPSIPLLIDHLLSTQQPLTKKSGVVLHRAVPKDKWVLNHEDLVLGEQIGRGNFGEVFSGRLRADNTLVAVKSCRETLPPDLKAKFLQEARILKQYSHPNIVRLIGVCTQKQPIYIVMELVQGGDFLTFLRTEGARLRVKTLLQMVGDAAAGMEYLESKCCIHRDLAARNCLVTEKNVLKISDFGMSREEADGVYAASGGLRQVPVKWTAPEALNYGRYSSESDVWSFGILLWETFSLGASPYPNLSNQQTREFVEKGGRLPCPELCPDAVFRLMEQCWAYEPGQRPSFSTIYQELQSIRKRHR
MERTK, sequence (Q12866 whole entry, looked up): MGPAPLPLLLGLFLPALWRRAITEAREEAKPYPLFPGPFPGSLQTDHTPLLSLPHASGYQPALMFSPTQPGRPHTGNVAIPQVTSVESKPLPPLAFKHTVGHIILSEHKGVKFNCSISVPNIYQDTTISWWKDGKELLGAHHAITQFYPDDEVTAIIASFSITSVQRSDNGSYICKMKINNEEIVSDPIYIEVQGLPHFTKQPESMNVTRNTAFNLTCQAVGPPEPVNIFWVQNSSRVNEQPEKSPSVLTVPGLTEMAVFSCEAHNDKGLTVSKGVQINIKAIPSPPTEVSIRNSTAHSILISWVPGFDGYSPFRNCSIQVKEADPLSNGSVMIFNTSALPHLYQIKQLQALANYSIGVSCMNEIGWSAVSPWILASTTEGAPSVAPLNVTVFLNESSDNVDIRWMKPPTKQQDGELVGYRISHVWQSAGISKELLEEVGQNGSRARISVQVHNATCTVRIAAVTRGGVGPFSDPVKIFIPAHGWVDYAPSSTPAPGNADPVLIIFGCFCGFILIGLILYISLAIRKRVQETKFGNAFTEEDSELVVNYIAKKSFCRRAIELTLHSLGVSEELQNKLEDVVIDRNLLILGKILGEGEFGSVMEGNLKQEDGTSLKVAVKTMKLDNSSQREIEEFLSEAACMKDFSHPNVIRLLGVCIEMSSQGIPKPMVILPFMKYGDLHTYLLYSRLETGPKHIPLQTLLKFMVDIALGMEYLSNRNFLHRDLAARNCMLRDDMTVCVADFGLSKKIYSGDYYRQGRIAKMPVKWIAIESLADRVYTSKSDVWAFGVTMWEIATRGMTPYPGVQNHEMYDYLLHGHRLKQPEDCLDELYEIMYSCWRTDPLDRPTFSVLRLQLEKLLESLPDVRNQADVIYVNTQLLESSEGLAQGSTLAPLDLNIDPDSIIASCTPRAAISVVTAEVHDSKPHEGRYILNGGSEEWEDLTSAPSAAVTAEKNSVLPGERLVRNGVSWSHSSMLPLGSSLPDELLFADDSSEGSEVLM
FGFR1, sequence (P11362 whole entry, looked up): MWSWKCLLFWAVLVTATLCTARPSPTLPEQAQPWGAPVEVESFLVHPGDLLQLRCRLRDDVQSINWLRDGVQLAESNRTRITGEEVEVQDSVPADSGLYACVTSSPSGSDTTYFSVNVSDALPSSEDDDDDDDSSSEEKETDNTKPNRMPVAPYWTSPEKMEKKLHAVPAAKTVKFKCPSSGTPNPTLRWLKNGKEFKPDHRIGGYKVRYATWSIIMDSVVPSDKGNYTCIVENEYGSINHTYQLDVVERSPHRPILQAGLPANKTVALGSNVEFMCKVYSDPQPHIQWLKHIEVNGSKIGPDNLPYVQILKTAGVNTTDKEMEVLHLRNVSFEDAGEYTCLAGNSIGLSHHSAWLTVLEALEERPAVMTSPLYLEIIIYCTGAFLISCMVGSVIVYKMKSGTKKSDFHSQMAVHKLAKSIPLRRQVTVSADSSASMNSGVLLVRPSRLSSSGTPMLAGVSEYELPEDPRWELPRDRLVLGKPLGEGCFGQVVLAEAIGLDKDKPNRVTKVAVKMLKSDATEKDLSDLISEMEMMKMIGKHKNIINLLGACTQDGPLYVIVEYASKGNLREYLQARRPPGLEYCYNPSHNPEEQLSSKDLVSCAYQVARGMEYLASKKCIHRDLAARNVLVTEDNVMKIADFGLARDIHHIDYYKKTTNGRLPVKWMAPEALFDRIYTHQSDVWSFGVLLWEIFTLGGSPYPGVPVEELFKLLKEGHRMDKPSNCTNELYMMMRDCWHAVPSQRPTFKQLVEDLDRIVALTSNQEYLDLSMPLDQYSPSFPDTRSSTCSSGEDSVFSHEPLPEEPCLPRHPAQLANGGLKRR
Hck, sequence (P08631 whole entry, looked up): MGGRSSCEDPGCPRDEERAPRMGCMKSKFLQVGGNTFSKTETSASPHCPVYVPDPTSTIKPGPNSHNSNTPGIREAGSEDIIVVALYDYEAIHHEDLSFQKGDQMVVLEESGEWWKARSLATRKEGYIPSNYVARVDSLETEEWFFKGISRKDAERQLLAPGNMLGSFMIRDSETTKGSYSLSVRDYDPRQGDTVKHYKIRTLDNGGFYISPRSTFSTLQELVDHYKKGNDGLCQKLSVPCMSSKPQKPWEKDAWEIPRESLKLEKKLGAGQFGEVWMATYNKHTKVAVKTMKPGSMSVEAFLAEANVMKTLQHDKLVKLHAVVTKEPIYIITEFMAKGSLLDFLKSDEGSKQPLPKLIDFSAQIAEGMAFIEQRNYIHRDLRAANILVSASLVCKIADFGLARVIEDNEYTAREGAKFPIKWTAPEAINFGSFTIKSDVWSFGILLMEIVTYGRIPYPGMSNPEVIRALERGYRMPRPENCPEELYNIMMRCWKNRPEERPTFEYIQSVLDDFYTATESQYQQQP

| SH2 binding enrichment (Grb2 SH2) | SH2 binding enrichment (c-Src SH2) | SH2 binding enrichment (SHP2-C SH2) | Sequence | phosphorylation enrichment (EPHB2) | phosphorylation enrichment (FGFR3) | phosphorylation enrichment (AncSZ) | phosphorylation enrichment (EPHB1) | phosphorylation enrichment (FGFR1) | phosphorylation enrichment (Fes) | phosphorylation enrichment (MERTK) | phosphorylation enrichment (Hck) | phosphorylation enrichment (Fer (mouse)) | phosphorylation enrichment (c-Src) | phosphorylation enrichment (c-Abl (mouse)) | phosphorylation enrichment (Jak2) | phosphorylation enrichment (Fyn) |
| --- | --- | --- | --- | --- | --- | --- | --- | --- | --- | --- | --- | --- | --- | --- | --- | --- |
| 0.599 | 0.645 | 0.733 | HNELFYEEAEH [VANGL1_Y345_YF] | 0.932 | 0.964 | 1.89 | 0.819 | 0.809 | 1.35 | 0.525 | 0.974 | 4.23 | 0.484 | 0.727 | 0.981 | 0.942 |
| 0.997 | 0.51 | 0.691 | TCFDKYTGSTY [FN1_Y101_N104S] | 0.556 | 0.534 | 0.843 | 0.442 | 0.556 | 0.737 | 0.399 | 0.652 | 0.418 | 0.5 | 0.579 | 0.747 | 0.469 |
| 0.677 | 0.443 | 1.75 | TDKLFYIYTSG [SLC27A4_Y243] | 0.682 | 0.811 | 1.5 | 0.701 | 0.565 | 1.94 | 0.589 | 0.522 | 0.517 | 0.542 | 1.18 | 1.48 | 0.48 |
| 0.91 | 0.666 | 0.672 | SLYPGYNFRYA [P2RX7_Y291] | 0.604 | 0.57 | 0.63 | 0.423 | 0.44 | 0.685 | 0.399 | 0.529 | 0.498 | 0.378 | 0.477 | 0.495 | 0.413 |
| 0.991 | 0.923 | 0.885 | FAFQLYDLDRD [CHP2_Y123_YF] | 0.673 | 0.68 | 1.06 | 1.23 | 0.467 | 1.37 | 0.694 | 1.03 | 0.631 | 2.17 | 0.823 | 1.13 | 1.2 |
| 1.35 | 0.79 | 1.39 | VSNFNYFFHRE [KCNA1_Y413_YF] | 0.509 | 0.885 | 1.12 | 0.642 | 0.685 | 1.22 | 0.45 | 0.506 | 0.472 | 0.445 | 0.831 | 0.969 | 0.454 |
| 0.912 | 0.693 | 0.559 | PEACDYGLGGG [GSTO1_Y239] | 0.887 | 0.816 | 1.78 | 1.38 | 1.19 | 1.34 | 0.635 | 0.739 | 0.656 | 1.19 | 1.28 | 1.11 | 0.691 |
| 0.79 | 0.499 | 0.566 | EQQNMYRLKVL [ABCC6_Y372] | 0.5 | 0.545 | 0.861 | 0.56 | 0.521 | 0.706 | 0.401 | 0.475 | 0.488 | 0.452 | 0.619 | 0.561 | 0.41 |
| 0.881 | 0.468 | 0.605 | EFTAGYNVKFD [GPX4_Y123_A120T] | 0.474 | 0.547 | 0.762 | 0.422 | 0.41 | 0.891 | 0.445 | 0.435 | 0.495 | 0.44 | 0.635 | 0.9 | 0.465 |
| 1.13 | 0.642 | 0.821 | QRRFVYFFSFL [PTEN_Y176_YF] | 0.61 | 0.908 | 1.6 | 0.563 | 0.573 | 1.46 | 0.618 | 0.57 | 1.91 | 0.567 | 1.12 | 1.15 | 0.656 |
| 0.727 | 0.286 | 0.566 | RRRLIYRCQVG [NR2E3_Y81] | 0.983 | 0.601 | 0.776 | 0.76 | 0.854 | 1.05 | 0.735 | 0.884 | 0.587 | 0.556 | 0.697 | 0.679 | 0.915 |
| 1.05 | 1.33 | 0.639 | SWVVPYEPPEV [TP53_Y220_V216W] | 0.631 | 0.861 | 1.44 | 0.553 | 0.599 | 1.23 | 0.39 | 0.542 | 0.577 | 0.411 | 0.851 | 0.957 | 0.463 |
| 0.793 | 0.669 | 0.889 | ALPVFYAATIA [SLC20A2_Y187] | 0.756 | 0.651 | 0.823 | 0.905 | 0.394 | 1.03 | 2.96 | 0.956 | 1.2 | 0.598 | 0.831 | 0.886 | 0.544 |
| 0.698 | 0.417 | 0.686 | LDLSFYPTSSS [EMD_Y182_YF] | 0.904 | 0.902 | 1.42 | 1.33 | 0.991 | 1.77 | 0.596 | 0.89 | 0.799 | 0.404 | 1.69 | 0.976 | 0.968 |

| Sequence | SH2 binding enrichment (Grb2 SH2) | SH2 binding enrichment (c-Src SH2) | SH2 binding enrichment (SHP2-C SH2) | phosphorylation enrichment (EPHB2) | phosphorylation enrichment (FGFR3) | phosphorylation enrichment (AncSZ) | phosphorylation enrichment (EPHB1) | phosphorylation enrichment (FGFR1) | phosphorylation enrichment (Fes) | phosphorylation enrichment (MERTK) | phosphorylation enrichment (Hck) | phosphorylation enrichment (Fer (mouse)) | phosphorylation enrichment (c-Src) | phosphorylation enrichment (c-Abl (mouse)) | phosphorylation enrichment (Jak2) | phosphorylation enrichment (Fyn) |
| --- | --- | --- | --- | --- | --- | --- | --- | --- | --- | --- | --- | --- | --- | --- | --- | --- |
| LRFEVYGGENE [STOX1_Y610_YF] | 0.723 | 0.536 | 0.842 | 0.855 | 0.774 | 1.15 | 0.56 | 0.621 | 1.55 | 0.454 | 0.5 | 0.483 | 0.5 | 0.925 | 1.29 | 0.539 |

— the supplement of paper PMC10065799, “High-throughput profiling of sequence recognition by tyrosine kinases and SH2 domains using bacterial peptide display” (eLife, 2023)
